Data as given in the DeepSol protein solubility set.

test: soluble on expression in E. coli; label from the status in PepcDB or PDB records

Row | Sequence | soluble on expression in E. coli
1 | MEGDGSDPEPPDAGEDSKSENGENAPIYCICRKPDINCFMIGCDNCNEWFHGDCIRITEKMAKAIREWYCRECREKDPKLEIRYRHKKSRERDGNERDSSEPRDEGGGRKRPVPDPDLQRRAGSGTGVGAMLARGSASPHKSSPQPLVATPSQHHQQQQQQIKRSARMCGECEACRRTEDCGHCDFCRDMKKFGGPNKIRQKCRLRQCQLRARESYKYFPSSLSPVTPSESLPRPRRPLPTQQQPQPSQKLGRIREDEGAVASSTVKEPPEATATPEPLSDEDLPLDPDLYQDFCAGAFDDHGLPWMSDTEESPFLDPALRKRAVKVKHVKRREKKSEKKVMERKEERYKRHRQKQKHKDKWKHPERADAKDPASLPQCLGPGCVRPAQPSSKYCSDDCGMKLAANRIYEILPQRIQQWQQSPCIAEEHGKKLLERIRREQQSARTRLQEMERRFHELEAIILRAKQQAVREDEESNEGDSDDTDLQIFCVSCGHPINPRVALRHMERCYAKYESQTSFGSMYPTRIEGATRLFCDVYNPQSKTYCKRLQVLCPEHSRDPKVPADEVCGCPLVRDVFELTGDFCRLPKRQCNRHYCWEKLRRAEVDLERVRVWYKLDELFEQERNVRTAMTNRAGLLALMLHQTIQHDPLTTDLRSSADR | soluble
2 | MEGESVKLSSQTLIQAGDDEKNQRTITVNPAHMGKAFKVMNELRSKQLLCDVMIVAEDVEIEAHRVVLAACSPYFCAMFTGDMSESKAKKIEIKDVDGQTLSKLIDYIYTAEIEVTEENVQVLLPAASLLQLMDVRQNCCDFLQSQLHPTNCLGIRAFADVHTCTDLLQQANAYAEQHFPEVMLGEEFLSLSLDQVCSLISSDKLTVSSEEKVFEAVISWINYEKETRLEHMAKLMEHVRLPLLPRDYLVQTVEEEALIKNNNTCKDFLIEAMKYHLLPLDQRLLIKNPRTKPRTPVSLPK | soluble
3 | MEGISKPMERYDSVVFAGMKQDGTIEFIKVYALNEDLAITILDQFLRENNLHPSDFVVIQRGLEDIKGKDIISTRTEEDLSAMLARLGLRLVSNGVLHTRGAEKIYQITAISKSLIERLQGEDKDKVSTIIKEEISIDFSNLKLPEKYMKKLLLLSLMEDTFILNRAELNVPEVIKRAVKGVVSIPRLIERDNIIIKVFDEELHTVQGSYLDRVIITPPVVHWDAHIDELDSFSFQEVEENVYEPPLFVKAMKGFLVLTEPPRDLVVMLLKLKRRGEVKVSLKGRQIRIPLNFTLVVDTKYPERYSGLKFPIRINLPPFDDETFAQMLSMVLGTKVPQDLVAMFPEEYKTFLGVEILSNLWKKLRKRGRKSEIELLKEMATIVTGGII | soluble
4 | MEGQENKVLFGLENVHYATYSETDGVITYDTPKPLPGGVEISVEPQGDMIKFYADNIVYYQAPNNQGYEGTLTIASIPEGFATDCLGEELDTVDGVLTEKSDAKPKPFALLFEFDGDVKSVRQVLYNCTASRPTVASSTLEHHHHHH | soluble
5 | MEGVRLGWRGLSREGRGGAWHAAERTRPCTQRVPPSSQKIALQLKATLENVTNLRPVGEDFRWYLKMKCGNCGEISEKWQYIRLMDSVALKGGRGSASMVQKCKLCARENSIDILSSTIKAYNAEDNEKFKTIVEFECRGLEPVDFQPQAGFAADGVESGTVFSDINLQEKDWTDYDEKAQESVGIFEVTHQFVKC | soluble
6 | MEHLGKVFREFRTSGNYSLKEAAGESCSTSQLSRFELGESDLAVSRFFEILDNIHVTIENFMDKARNFHNHEHVSMMAQIIPLYYSNDIAGFQKLQREQLEKSKSSTTPLYFELNWILLQGLICQRDASYDMKQDDLGKVADYLFKTEEWTMYELILFGNLYSFYDVDYVTRIGREVMEREEFYQEISRHKRLVLILALNCYQHCLEHSSFYNANYFEAYTEKIIDKGIKLYERNVFHYLKGFALYQKGQCKEGCKQMQEAMHIFDVLGLPEQVAYYQEHYEKFVKS | not soluble
7 | MEIGDVSTGYLEDALIEFSGRSKRRRLSFNGAEDKPDNDLDHSQNHWGLSENYSCTSSQFAEKNDYDEKKRVVYPFGVVKPGGREEDITLNDINKRILMPSARPVRHPVGDFACRPCVSADGPGLSGKAVVAFTKIQTLGRGTITIIRTKG | soluble
8 | MEIIIVGGFLGSGKTTTLNHLITDALDHNLKTALIINEFGKMSVDSQLIHPTIPISEIVEGCICCAMKSNVSQQLHEIYLEHQPDLVFIECSGIAEPLAVVDACLTPVLAPITTIRSMLGIIDAKLYEKIETYPRDIQALFYEQLSYCSTLFVNKIDIADFNQVARLLRHLEVINRDANIQVGQWGELALNTLLNVKHLDAKQRGTLHHAINHQLIDTPRSQTKADFIERLTQLPQQVYRVKGFVRFTDSKLIHLVQYAEGEIELTPIQFKSDVPLYLVVIGKHLDAIELDLLEHHHHHH | not soluble
9 | MEILSGRSSIIIDTDPINVYNQAHPPFSFPIPAKDVMSVASRPDLRNENLMVFSSIEGDLALLKSMNLPANVKIVYDNTDGSWVRYYPYAFYRSINAEELYAKIDDFVVLDIREEFELFSGFIEGSVNIPFSSIMQEPVELDKNRKYAVVCAHGNRSRVAVELLSSKGIEVYDVPGGMQKWLETGLPVSYEED | not soluble
10 | MEIPPTNYPASRAALVAQNYINYQQGTPHRVFEVQKVKQASMEDIPGRGHKYRLKFAVEEIIQKQVKVNCTAEVLYPSTGQETAPEVNFTFEGETGKNPDEEDNTFYQRLKSMKEPLEAQNIPDNFGNVSPEMTLVLHLAWVACGYIIWQNSTEDTWYKMVKIQTVKQVQRNDDFIELDYTILLHNIASQEIIPWQMQVLWHPQYGTKVKHNSRLPKEVQLE | soluble
11 | MEIPSYASNIQPYGSQSGTKIASENDNAKSVSLSGDNSRSVSRTDKLSEHFSEQVRARQQESAETAMAQAKQRQRLNEEQLAKMVEQMNEFVKSINKGLSFRLDRESGREVVTIYEASTGDIIRQIPEEEMLEVLRRLAREQDHRSGLLMAKV | not soluble
12 | MEITRLLTLYYEATPDPQNPLEGVRFGTSGHRGSSLKATFTEAHVLAIAQAIAELRPSFGATGPLFLAKDTHALSEPAWATALSVFAAHGIEVRVEADGDYTPTPLVSLAILEHNAHHEAKADGVLLTPSHNPPEDGGFKYNPPTGGPANARITRAIEERANALLQEGLKGVKRLPLREALARAKPFDYAGLYVEKVAEAVDLEAIRASGLRIGVDPLGGASLRVWERLAESHGLPLEVVNPTLDPTFRFMPKDHDGKIRMDCSSPYAMAGLLALKDRFDLAIGNDPDADRHGIVTPRGLMNPNHYLAAALHHLYTTRSWPGAKVGKTAVTSALLDRVAQALGREVYETPVGFKHFVAGLLEGWLGFAGEESAGASFLRFDGRPFSTDKDGILMGLLAAELMAKRGQAPDALYEALAEKLGRPYYARKDLPVSPEAKARLARLSAKEVHPSTLAGEPVLQVLDRATGNGEPLGGIKVVAANAWFAVRPSGTEDVAKVYAESFLGEAHLERVLEEATALLHKALA | soluble
13 | MEKEKSKTESLKKDEIDEANSESSKVPLAIDPEEAKLPNAGGKSEHMVVNFTSKRMAIKVRCGNALFRVEPTHMIIEPNKCRQLTINRMPGPIQKDKAIVQYLQIENDVQDPKTAFKAADSAGTKIPHLKIKLVAGASGGRQMSREVVDE | not soluble
14 | MEKFNNIAQLKDSGLKVTGPRLKILDLFETHAEEHLSAEDVYRILLEEGVEIGVATIYRVLTQFEQAGILQRHHFETGKAVYELDKGDHHDHIVCVKCGEVTEFHNPEIEALQDKIAEENGYRIVDHALYMYGVCSDCQAKGKR | not soluble
15 | MEKIAVVGAGITGLFTAYYLSASGFDVEVFDKGDIASGTSGKFHGMLHSGARYAVTDKVSASECISENNTISSFARWFINDTGGYFVSSNREESDYGDTLTKACNDAGIPNYDIDVDEFKKIEPNVKNVDRVIHVPDKVIRAYEFSAAVAAEAFMNGTKFRLYSPVASVSEKGGKYVLGIERNGSLHYEHFDLIVNATGPFSGEFLKLAGYGGSPVMPSAGIMVVFSKPIVRSIINRMREPSDADIMVPYDGLSILGTSAVIVDDPENFSIDSEDVEAMIEDMSSLIPLIRNVNYSRTYYSVRPLLEDEGDDARKASRSFRIIKNGEGVFTVVGGKFTTGRLIGEHVAKEISKETGATIRIENPDLNSTYERFIEKYGRDDKYIAKAMSRIGTIDEENAMRSVAYAISTIIEGSLEHHHHHH | not soluble
16 | MEKIKIIVASDSIGETAELVARAGISQFNPKQCKNELLRYPYIESFEDVDEVIQVAKDTNAIIVYTLIKPEMKQYMSEKVAEFQLKSVDIMGPLMDLLSASVEEKPYNEPGIVHRLDDAYFKKIDAIEFAVKYDDGKDPKGLPKADIVLLGISRTSKTPLSQYLAHKSYKVMNVPIVPEVTPPDGLYDIDPKKCIALKISEEKLNRIRKERLKQLGLGDTARYATEARIQEELNYFEEIVSEIGCPVIDVSQKAIEETANDIIHYIEQNKSKLEHHHHHH | not soluble
17 | MEKKLLRKEVLITLKSQPQAYKSEVDCKLLEAFIKTKAYQNSCVIATYLSFDYEYNTQLLIKQALCDGKRVLVPKTYPKGKMIFVDYQKDNLRTTPFGLLEPVNDRAVEKASIDLIHVPGLIFNNKGFRIGYGAGYFDRYLSDFEGDTISTIYRCQRQDFVEEKHDVAVKEVLCLLEHHHHHH | soluble
18 | MEKKLPRIKALLTPGEVAKRSGVAVSALHFYESKGLITSIRNSGNQRRYKRDVLRYVAIIKIAQRIGIPLATIGEAFGVLPEGHTLSAKEWKQLSSQWREELDRRIHTLVALRDELDGCIGCGCLSRSDCPLRNPGDRLGEEGTGARLLEDEQN | soluble
19 | MEKLRIKGMSYTMCSGKFSIDKEMAETQHGTTVVKVKYEGAGAPCKVPIEIRDVNKEKVVGRIISSTPLAENTNSVTNIELEPPFGDSYIVIGVGNSALTLHWFRKGSSIGK | soluble
20 | MEKLTIQEEEVMLHIWSMGECFVKDIVAKFPEPKPPYTTVASIVNNLKRKGYVTAKRFGNTYQYTPVVKQSEYKRTFVSGVVRNYFADSYKEMVSFFAKEQKISAADLKDIINLIEKEEDK | not soluble
21 | MEKLYEGKAKVLYREGPDTLRVYFKDEATAFNAQKRGVIPGKGVVNNKVSAALFRYLEAHGVKTHFLEEVSDREMRVRRVEILPLEVILRFRAAGSFARRYGLKEGTPLKMPLLEFSLKNDALGDPLICENAVLALGLTTEGELEGVKAATLRVGDLLKAFFAERGLELVDFKLEFGKVGGEILLADEISPDTMRLWDEKGEPLDKDRFRKDLGGVEEAYREVLRRVLG | soluble
22 | MEKRKHFTPEQKAKIVIEVIKGERTLNEIAAEYGIHPNLLSRWKTEFISNAGRVFSKETDEVEKVKQSYEKEKDELLKQIGQLSYEVAWLKKKSGLL | not soluble
23 | MEKSLKNYKTLQQLFVRRLKAGVRPVDADEHTVVSPVDAVIEDMGTIRENCEMIVKGKPYSIAEMLGSVEAAQPYVNGFFFILYLSPSHYHRIHSPISGVIEKQWALGRKSYPVNRLGLKYGRRPLEKNYRLITEVTAGGKRLAIVKIGAMFVNSIELTHEGEQLVKGEEMAYFSFGSTVVLLFERGSFAPDPRIVAPMPIKVGERLGYWCEAHER | not soluble
24 | MELEAGTVVEGRVVRVVSFGAFVELAGGEQGLVHISQIAHEYVTNVRDYLNEGDIVQVLIKGRDAKGRLDLSIKDLTPAPEGGAPPPRPRRLPKQSPEFENKLKSFLRGTGGFGGKGKKGGRKKR | soluble
